In publication PMC8989322 (2022):

B1: mAb1488 (antibody, V domains shown)
VH: EVHLVESGGGLVKPGGSLRLSCAASGFTFSSYTMNWVRQAPGKGLEWVSSISSSSTYIYYADSVRGRFTISRDNAKNSLYLQMNSLRAEDSAVYYCARRAGGFDAYYFDYWGQGTLVTVSS
VL: not shown
B2: mAb234 (antibody, V domains shown)
VH: EVQLVESGGGLVKPGGSLRLSCAASGFNFSTHIMNWVRQAPGKGLEWVSSISSSGTYIYYADSMKGRFTISRDNPKNSLYLQMNSLRAEDTAVYYCARARGFIQFHYYMDVWGKGTTVAVSS
VL: SYVLTQPPSVSVAPGKTARITCGGNNIGSKSVHWHQQRPGQAPVLVVYDDKIRPSGIPERFSGSNSGNTATLIISRVEAGDEADYYCQVWHSSSDPVVFGGGTKLTVL
B3: mAb352 (antibody, V domains shown)
VH: EVQLVESGGGLVKPGGSLRLSCAASGFSFSEYRMNWVRQAPGKGLEWVSFISSSGTYIDYADSVKGRFTISRDNVNNSLYLQMNNLRAGDTAVYYCARGMGIAVRRFDYWGQGTLVSVSS
VL: SYVLTQPPSVSVAPGQTAKITCGGNNIGSESVHWYQQKPGQAPVLVVYDDAVRPSGIPERFSGSNSRNTATLTISRVEAGDEAAYYCQVWDSSTVASFGGGTKLTVL
B4: mAb1512 (antibody, V domains shown)
VH: KVQLVQSGGGVVQPGRSQRLSCAASGLTLSEYAMHWVRQAPGKGLEWVAVILSDGTKKEYADSVKGRFTISRDNSKNTLYLQMNSLRAEDTAVYYCATDDNILGHCRSKSCQRNYYHGMDVWGQGTTVSVSS
VL: DIVMTQSPLSLPVTPGEPASISCRSSQSLLHSNGKNYLDWYLQKPGQSPQLLIYLGSDRASGVPDRFSGSGSGTDFTLSISRVEAEDVGVYYCMQALQTPFTFGPGTKVDIK
B5: mAb236 (antibody, V domains shown)
VH: EVQLVESGGGLVQPGGSLRLSCVASGFNFTTYSMNWVRQAPGKGLEWVSYISSHSNLIYYATSVKGRFTISRDNAKNSLYLQMNSLRAEDTALYYCARGGSLHPSAGADWIDPWGQGTLVTVSS
VL: SYELTQAPSVSVSPGQTATITCSGDKLGDKFTSWYQQKPGQSPVLVIYQDSKRPSGIPERFSASNSGNTATLTISGTRAMDEADYYCQAWDSNTYVFGTGTRVAVL

The binders below were run against reference 3D7 ctCSP peptide (P. falciparum 3D7) (assay: SPR).
Binder B1 has a Kd of 0.36 nM. B2 showed a Kd of 0.00377 nM. B3 showed a Kd of 0.0116 nM. With B4 the Kd was 0.0291 nM. B5 was tested, and the Kd was 0.00278 nM.
